Paper PMC8106667 (Molecular cell, 2021)
Where a chain is given by its changes, count along the chain named. Names may count otherwise.

B1: MBP-ORC1 180–240 (domain or fragment, human, UniProt Q13415 180-240, looked up)
chain: QESAAKCQKPVRAKSKSAESPSWTPAEHVAKRIESRHSASKSRQTPTHPLTPRARKRLELG
B2: MBP-ORC1 wild type, full length (natural protein, human, UniProt Q13415 1-861, looked up)
chain: MAHYPTRLKTRKTYSWVGRPLLDRKLHYQTYREMCVKTEGCSTEIHIQIGQFVLIEGDDDENPYVAKLLELFEDDSDPPPKKRARVQWFVRFCEVPACKRHLLGRKPGAQEIFWYDYPACDSNINAETIIGLVRVIPLAPKDVVPTNLKNEKTLFVKLSWNEKKFRPLSSELFAELNKPQESAAKCQKPVRAKSKSAESPSWTPAEHVAKRIESRHSASKSRQTPTHPLTPRARKRLELGNLGNPQMSQQTSCASLDSPGRIKRKVAFSEITSPSKRSQPDKLQTLSPALKAPEKTRETGLSYTEDDKKASPEHRIILRTRIAASKTIDIREERTLTPISGGQRSSVVPSVILKPENIKKRDAKEAKAQNEATSTPHRIRRKSSVLTMNRIRQQLRFLGNSKSDQEEKEILPAAEISDSSSDEEEASTPPLPRRAPRTVSRNLRSSLKSSLHTLTKVPKKSLKPRTPRCAAPQIRSRSLAAQEPASVLEEARLRLHVSAVPESLPCREQEFQDIYNFVESKLLDHTGGCMYISGVPGTGKTATVHEVIRCLQQAAQANDVPPFQYIEVNGMKLTEPHQVYVQILQKLTGQKATANHAAELLAKQFCTRGSPQETTVLLVDELDLLWTHKQDIMYNLFDWPTHKEARLVVLAIANTMDLPERIMMNRVSSRLGLTRMCFQPYTYSQLQQILRSRLKHLKAFEDDAIQLVARKVAALSGDARRCLDICRRATEICEFSQQKPDSPGLVTIAHSMEAVDEMFSSSYITAIKNSSVLEQSFLRAILAEFRRSGLEEATFQQIYSQHVALCRMEGLPYPTMSETMAVCSHLGSCRLLLVEPSRNDLLLRVRLNVSQDDVLYALKDE
B3: MBP-ORC1 R105Q (natural protein, human, UniProt Q13415 1-861, looked up)
chain: B2 chain with R105Q
B4: GST-CDC6 Δ51–70 (natural protein, human, UniProt Q99741 1-560, looked up)
chain: MPQTRSQAQATISFPKRKLSRALNKAKNSSDAKLEPTNVQTVTCSPRVKAPPCSPPKQGKKENGPPHSHTLKGRRLVFDNQLTIKSPSKRELAKVHQNKILSSVRKSQEITTNSEQRCPLKKESACVRLFKQEGTCYQQAKLVLNTAVPDRLPAREREMDVIRNFLREHICGKKAGSLYLSGAPGTGKTACLSRILQDLKKELKGFKTIMLNCMSLRTAQAVFPAIAQEICQEEVSRPAGKDMMRKLEKHMTAEKGPMIVLVLDEMDQLDSKGQDVLYTLFEWPWLSNSHLVLIGIANTLDLTDRILPRLQAREKCKPQLLNFPPYTRNQIVTILQDRLNQVSRDQVLDNAAVQFCARKVSAVSGDVRKALDVCRRAIEIVESDVKSQTILKPLSECKSPSEPLIPKRVGLIHISQVISEVDGNRMTLSQEGAQDSFPLQQKILVCSLMLLIRQLKIKEVTLGKLYEAYSKVCRKQQVAAVDQSECLSLSGLLEARGILGLKRNKETRLTKVFFKIEEKEIEHALKDKALIGNILATGLP
B5: MBP-ORC1 R105Q, R720Q (natural protein, human, UniProt Q13415 1-861, looked up)
chain: B2 chain with R105Q, R720Q
B6: GST-CDC6 Δ11–20 (natural protein, human, UniProt Q99741 1-560, looked up)
chain: MPQTRSQAQARALNKAKNSSDAKLEPTNVQTVTCSPRVKALPLSPRKRLGDDNLCNTPHLPPCSPPKQGKKENGPPHSHTLKGRRLVFDNQLTIKSPSKRELAKVHQNKILSSVRKSQEITTNSEQRCPLKKESACVRLFKQEGTCYQQAKLVLNTAVPDRLPAREREMDVIRNFLREHICGKKAGSLYLSGAPGTGKTACLSRILQDLKKELKGFKTIMLNCMSLRTAQAVFPAIAQEICQEEVSRPAGKDMMRKLEKHMTAEKGPMIVLVLDEMDQLDSKGQDVLYTLFEWPWLSNSHLVLIGIANTLDLTDRILPRLQAREKCKPQLLNFPPYTRNQIVTILQDRLNQVSRDQVLDNAAVQFCARKVSAVSGDVRKALDVCRRAIEIVESDVKSQTILKPLSECKSPSEPLIPKRVGLIHISQVISEVDGNRMTLSQEGAQDSFPLQQKILVCSLMLLIRQLKIKEVTLGKLYEAYSKVCRKQQVAAVDQSECLSLSGLLEARGILGLKRNKETRLTKVFFKIEEKEIEHALKDKALIGNILATGLP
B7: GST-CDC6 Δ71–90 (natural protein, human, UniProt Q99741 1-560, looked up)
chain: MPQTRSQAQATISFPKRKLSRALNKAKNSSDAKLEPTNVQTVTCSPRVKALPLSPRKRLGDDNLCNTPHLLKGRRLVFDNQLTIKSPSKRELAKVHQNKILSSVRKSQEITTNSEQRCPLKKESACVRLFKQEGTCYQQAKLVLNTAVPDRLPAREREMDVIRNFLREHICGKKAGSLYLSGAPGTGKTACLSRILQDLKKELKGFKTIMLNCMSLRTAQAVFPAIAQEICQEEVSRPAGKDMMRKLEKHMTAEKGPMIVLVLDEMDQLDSKGQDVLYTLFEWPWLSNSHLVLIGIANTLDLTDRILPRLQAREKCKPQLLNFPPYTRNQIVTILQDRLNQVSRDQVLDNAAVQFCARKVSAVSGDVRKALDVCRRAIEIVESDVKSQTILKPLSECKSPSEPLIPKRVGLIHISQVISEVDGNRMTLSQEGAQDSFPLQQKILVCSLMLLIRQLKIKEVTLGKLYEAYSKVCRKQQVAAVDQSECLSLSGLLEARGILGLKRNKETRLTKVFFKIEEKEIEHALKDKALIGNILATGLP
B8: GST-CDC6 Δ21–30 (natural protein, human, UniProt Q99741 1-560, looked up)
chain: B6 chain with R11T, A12I, L13S, N14F, K15P, A16K, K17R, N18K, S19L
B9: GST-CDC6 1–110 (domain or fragment, human, UniProt Q99741 1-110, looked up)
chain: MPQTRSQAQATISFPKRKLSRALNKAKNSSDAKLEPTNVQTVTCSPRVKALPLSPRKRLGDDNLCNTPHLPPCSPPKQGKKENGPPHSHTLKGRRLVFDNQLTIKSPSKR
B10: GST-CDC6 triple mutant (K92A, R94A and R95A) (natural protein, human, UniProt Q99741 1-560, looked up)
chain: MPQTRSQAQATISFPKRKLSRALNKAKNSSDAKLEPTNVQTVTCSPRVKALPLSPRKRLGDDNLCNTPHLPPCSPPKQGKKENGPPHSHTLAGAALVFDNQLTIKSPSKRELAKVHQNKILSSVRKSQEITTNSEQRCPLKKESACVRLFKQEGTCYQQAKLVLNTAVPDRLPAREREMDVIRNFLREHICGKKAGSLYLSGAPGTGKTACLSRILQDLKKELKGFKTIMLNCMSLRTAQAVFPAIAQEICQEEVSRPAGKDMMRKLEKHMTAEKGPMIVLVLDEMDQLDSKGQDVLYTLFEWPWLSNSHLVLIGIANTLDLTDRILPRLQAREKCKPQLLNFPPYTRNQIVTILQDRLNQVSRDQVLDNAAVQFCARKVSAVSGDVRKALDVCRRAIEIVESDVKSQTILKPLSECKSPSEPLIPKRVGLIHISQVISEVDGNRMTLSQEGAQDSFPLQQKILVCSLMLLIRQLKIKEVTLGKLYEAYSKVCRKQQVAAVDQSECLSLSGLLEARGILGLKRNKETRLTKVFFKIEEKEIEHALKDKALIGNILATGLP
B11: MBP-ORC1^235ARA^237 (MBP-ORC1 A-A), full length (natural protein, human, UniProt Q13415 1-861, looked up)
chain: B2 chain with K235A, L237A
B12: MBP-ORC1 R720Q (natural protein, human, UniProt Q13415 1-861, looked up)
chain: B2 chain with R720Q
B13: MBP-ORC1 100–250 wild type (domain or fragment, human, UniProt Q13415 100-250, looked up)
chain: RHLLGRKPGAQEIFWYDYPACDSNINAETIIGLVRVIPLAPKDVVPTNLKNEKTLFVKLSWNEKKFRPLSSELFAELNKPQESAAKCQKPVRAKSKSAESPSWTPAEHVAKRIESRHSASKSRQTPTHPLTPRARKRLELGNLGNPQMSQQ
B14: MBP-ORC1 100–250 L237A (domain or fragment, human, UniProt Q13415 100-250, looked up)
chain: B13 chain with L138A

Tests used:
Assay in all cases: pull-down
[1] = molecular target: T1, GST-CDC6 wild type, full length (human, UniProt Q99741 1-560)
T1 sequence (looked up): B10 chain with A92K, A94R, A95R

[2] = molecular target: T2, MBP-GFP-ORC1 wild type, full length (human, UniProt Q13415 1-861)
T2 sequence (looked up): B2 chain

[3] = molecular target: B2

Binder	binding result [2]	binding result [3]	other results
B1	–	–	binding result [1]: binds
B2	binds	–	–
B3	binds	–	–
B4	–	binds	–
B5	binds	–	–
B6	–	binds	–
B7	–	binds	–
B8	–	binds	–
B9	–	binds	–
B10	–	binds	–
B11	binds	–	–
B12	binds	–	–
B13	–	–	binding result [1]: binds
B14	–	–	binding result [1]: binds
